In the domain aggregation screens of Martell et al. (2025):

test: soluble fraction after stress (log2 fold change); higher = more stays soluble; pooled small domains, quantitative proteomics; conditions: stress: 50 degC
Procedure, shortened: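 Quantitative proteomics served as the high-throughput read-out for pooled custom libraries of small protein domains. Each was stressed at 50°C. Aggregation propensity is expressed as the base-two log fold change in soluble protein after stress. A higher value means a larger share of the protein remains in solution.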

Going from “HMQSEESTHIGERMLNQALRAMHVEPSAVKEKQWEKLIRDYSVKNKQDILTDIGLGKRQSVMVAHQLLAI” to “HMRKLHFVMSEIYEDHPWIGSKLQDVFLPKDIRVVLVERDSKQFMPNGQTLFELGDRLTLSALHYDPA”, the “soluble fraction (log2)” value falls from 0.0574 to -3.02.

“HMTGIVVVDVVGQVGRPGLVSLPAGSRVADAITAAGGATPEADVSLLNQARLVIDGEQIRVPRPGEVIAA” and “HMLALKSGQVVVGTIIRRLDNTTAMLRIGNQLFETSFAKGLPKSNHILLRYDAMQGNRFIFTMVE” are within 0.2 log units of each other in “soluble fraction (log2)” value: -0.0367 for the first, -0.191 for the second.

“HMLPDLQKAIDTFLYEVDSRINTSFEELIDKLNSKEEAVAFFLALLEAVRWGFIKAEQESNSINIKK” and “HMESILDDFPGLGAVRRAALLEHFGDIDRLRAASAVEITEVDGFGDVLARELHDFLHRPKPDA” are within 0.2 log units of each other in “soluble fraction (log2)” value: -0.565 for the first, -0.455 for the second.

Going from “HMSSKAVLEKFEALFIDQMLQSMRKATVRSELFDSEGIKLYESLFDKEISEELAKSGGLGLTKDLEQQL” to “HMAEPSTSYTQFMDQAKEGKIKRVDVQGRTLTVTPTEGATYKITAPGDLWMVEDLRKAGVQVYGQP”, the “soluble fraction (log2)” value rises from -0.888 to 0.207.

Compared with “HMIHQIPVNVQKIRQIIGINLNENDYLNYLAKLGFVIDEGLIIVPSFRSDVKTQNDLAEEIARV”, “HMASMNPVWLEFPNIPWGSAGWRMGWGEDYMRRWAKWYISLAEVERQSYKSDWPEPQEWEGFYAFMEHGT” is lower in “soluble fraction (log2)” value: -0.444 for the first, -1.63 for the second.

“HMSGIVPAAPPLRPDLDIKWHTGDKVRHAKWGEGTIVSVKGEGEETELKIAFPGQGIRPFMQKYAPITR” and “HMTNVYSLIGKRGIVVEDIDWQKGTGQVKIDGELWSVKTNEQINISKGTEVEVENIEGVKVFVKPI” are within 0.2 log units of each other in “soluble fraction (log2)” value: 0.163 for the first, 0.09 for the second.

Going from “HMGRGAAKGPLKELGLDPVTGRPLVVKDGKFGMYVTDGETNAGLRRGDLVEQLTLDRGMELLAERRARADQ” to “HMNGLPDLSRYTGVSIVDGLASVGSDSSFAYRAKIAETLGISDYKGSAGQNLEMIRKLGGKV”, the “soluble fraction (log2)” value falls from 0.203 to -0.291.

Going from “HMIYQEGMQVKYQGKEYVISEIQDYKTYKTIKLDDNEGYLNGFITGSEILSFRNESELDLEI” to “HMTDKLIAYSVDGILNVITSEAQSVKVYAIDGRLVRILQLGEGRNEVSGLAKGIYIVDNRKVAV”, the “soluble fraction (log2)” value falls from -0.314 to -1.71.

Going from “HMKEQLLLGFKVRSLRGIDLGFVKFIEGSAFQSFLKTDLTIIPNVPNYVKKIDNVKKIILVDWESD” to “HMWTPLVVAVLIGGTHRFGELRAAVGGITPKVLTETLRSMERDGLVVREQTPGVPPRVDYALTPLGA”, the “soluble fraction (log2)” value rises from -2.69 to -0.319.

Compared with “HMEYYEDEELDRFRGRNSDQYSDAEIEEFNEILTTLRSEEVAGWIRSLQLREIALPDELKDDVILLVG”, “HMRSFRIGGLVEQGSIARDGQSLTVRFAVTDLAHKIPVTYTGLLPDLFKEGKGVVAEGKLGPDGVFHASQV” is higher in “soluble fraction (log2)” value: -0.804 for the first, -0.0153 for the second.

First: HMTSLSYINDLVTGATAQGLYRIVVPNQFMDDNMANVLRRTYGYQVQSRTSLMGTFDDYIISWAPPM
Second: HMDASKVKIEDLGLSTRTENALVAASIRTAGGLARKSEMDLLSTDGLGEKGITEIKKALSDLGLELK
The “soluble fraction (log2)” value of the first is lower: -2.45 for the first, 0.285 for the second.

“HMKEGGREEMSEIVERYGDERALMANITSVQNLMNNMKWTLDQALDALGIKGKERTLITQQLQ” and “HMTPTFSNQDLIKAGLAGSPVAKRRRERLGELLGIGYGNAKQLLKRLDLFAIDRPTFERAVAQLDQEGK” are within 0.2 log units of each other in “soluble fraction (log2)” value: -0.147 for the first, -0.161 for the second.

First: HMKTALDEAKDFLNGALSKGHRPASDVVDEAKEASISEKTLKRAKLAIGIITRKEGFGSEGKWVWELPAR
Second: HMESGSSKINQDILETFTRGKKSLSISDISRLSGHHRHTVARYLDNLVSSGKLEMRQHGQKKKYYLSDIQP
The “soluble fraction (log2)” value of the first is lower: -0.341 for the first, 0.0308 for the second.

“HMEPVIELGDRTLPIEITRHRRARRLTLRLAADGSAVRITLPHWARSAEATAFAHARRDWLAAQLAK” and “HMKHVENLSDEKTIQAIQENPYMQYLLGLSKFTEKPVFVPELFVLIRKRLDQDFFNMLTLILAEADG” are within 0.2 log units of each other in “soluble fraction (log2)” value: 0.0378 for the first, 0.143 for the second.

“HMKSYAQIAEILSGQQPNTSRKEGSNLAVHADWIDALIAKYGTALRPEEANEVVKKEIGIVFSHVLEN” and “HMVNHEERKRLIAEATWRTISHVGIEQASVRTIAKEAGLSLGALRYYFTTQEELLRFSMQLVQERV” are within 0.2 log units of each other in “soluble fraction (log2)” value: -0.0639 for the first, -0.0983 for the second.
